The labels stand for the following.
T1: human calcitonin receptor (human, UniProt P30988 25-474)
T1 construct: whole, on cells; also called hCT-R; hCTR
T1 sequence (looked up): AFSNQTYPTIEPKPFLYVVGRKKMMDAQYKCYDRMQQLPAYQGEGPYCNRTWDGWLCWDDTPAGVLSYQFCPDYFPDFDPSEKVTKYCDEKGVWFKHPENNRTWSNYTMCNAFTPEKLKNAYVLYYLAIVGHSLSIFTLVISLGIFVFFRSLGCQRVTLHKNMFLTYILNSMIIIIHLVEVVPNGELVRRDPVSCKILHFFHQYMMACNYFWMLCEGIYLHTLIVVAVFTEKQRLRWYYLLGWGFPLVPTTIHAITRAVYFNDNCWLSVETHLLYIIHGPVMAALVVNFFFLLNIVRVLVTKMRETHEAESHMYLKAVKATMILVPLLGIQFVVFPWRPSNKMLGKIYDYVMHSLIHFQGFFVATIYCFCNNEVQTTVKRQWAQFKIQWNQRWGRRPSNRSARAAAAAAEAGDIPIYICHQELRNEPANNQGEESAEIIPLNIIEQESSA

B1: [N-terminal(C18 diacid), 3P, 9V]mimylin (peptide)
peptide: {C18 diacid}-EAPELSTAVLGRLSAELHELATLPRTETGPESP-NH2
SMILES: CC(C)C[C@H](NC(=O)[C@H](CCC(=O)O)NC(=O)[C@H](Cc1c[nH]cn1)NC(=O)[C@H](CC(C)C)NC(=O)[C@H](CCC(=O)O)NC(=O)[C@H](C)NC(=O)[C@H](CO)NC(=O)[C@H](CC(C)C)NC(=O)[C@H](CCCNC(=N)N)NC(=O)CNC(=O)[C@H](CC(C)C)NC(=O)[C@@H](NC(=O)[C@H](C)NC(=O)[C@@H](NC(=O)[C@H](CO)NC(=O)[C@H](CC(C)C)NC(=O)[C@H](CCC(=O)O)NC(=O)[C@@H]1CCCN1C(=O)[C@H](C)NC(=O)[C@H](CCC(=O)O)NC(=O)CCCCCCCCCCCCCCCCC(=O)O)[C@@H](C)O)C(C)C)C(=O)N[C@@H](C)C(=O)N[C@H](C(=O)N[C@@H](CC(C)C)C(=O)N1CCC[C@H]1C(=O)N[C@@H](CCCNC(=N)N)C(=O)N[C@H](C(=O)N[C@@H](CCC(=O)O)C(=O)N[C@H](C(=O)NCC(=O)N1CCC[C@H]1C(=O)N[C@@H](CCC(=O)O)C(=O)N[C@@H](CO)C(=O)N1CCC[C@H]1C(N)=O)[C@@H](C)O)[C@@H](C)O)[C@@H](C)O
notes: also called Ex. #29
B2: [N-terminal(C18 diacid), 5I]mimylin (peptide)
peptide: {C18 diacid}-EASEISTAALGRLSAELHELATLPRTETGPESP-NH2
SMILES: CC[C@H](C)[C@H](NC(=O)[C@H](CCC(=O)O)NC(=O)[C@H](CO)NC(=O)[C@H](C)NC(=O)[C@H](CCC(=O)O)NC(=O)CCCCCCCCCCCCCCCCC(=O)O)C(=O)N[C@@H](CO)C(=O)N[C@H](C(=O)N[C@@H](C)C(=O)N[C@@H](C)C(=O)N[C@@H](CC(C)C)C(=O)NCC(=O)N[C@@H](CCCNC(=N)N)C(=O)N[C@@H](CC(C)C)C(=O)N[C@@H](CO)C(=O)N[C@@H](C)C(=O)N[C@@H](CCC(=O)O)C(=O)N[C@@H](CC(C)C)C(=O)N[C@@H](Cc1c[nH]cn1)C(=O)N[C@@H](CCC(=O)O)C(=O)N[C@@H](CC(C)C)C(=O)N[C@@H](C)C(=O)N[C@H](C(=O)N[C@@H](CC(C)C)C(=O)N1CCC[C@H]1C(=O)N[C@@H](CCCNC(=N)N)C(=O)N[C@H](C(=O)N[C@@H](CCC(=O)O)C(=O)N[C@H](C(=O)NCC(=O)N1CCC[C@H]1C(=O)N[C@@H](CCC(=O)O)C(=O)N[C@@H](CO)C(=O)N1CCC[C@H]1C(N)=O)[C@@H](C)O)[C@@H](C)O)[C@@H](C)O)[C@@H](C)O
notes: also called Ex. #8
B3: [N-terminal(C18 diacid), 5V, 9V]mimylin (peptide)
peptide: {C18 diacid}-EASEVSTAVLGRLSAELHELATLPRTETGPESP-NH2
SMILES: CC(C)C[C@H](NC(=O)[C@H](CCC(=O)O)NC(=O)[C@H](Cc1c[nH]cn1)NC(=O)[C@H](CC(C)C)NC(=O)[C@H](CCC(=O)O)NC(=O)[C@H](C)NC(=O)[C@H](CO)NC(=O)[C@H](CC(C)C)NC(=O)[C@H](CCCNC(=N)N)NC(=O)CNC(=O)[C@H](CC(C)C)NC(=O)[C@@H](NC(=O)[C@H](C)NC(=O)[C@@H](NC(=O)[C@H](CO)NC(=O)[C@@H](NC(=O)[C@H](CCC(=O)O)NC(=O)[C@H](CO)NC(=O)[C@H](C)NC(=O)[C@H](CCC(=O)O)NC(=O)CCCCCCCCCCCCCCCCC(=O)O)C(C)C)[C@@H](C)O)C(C)C)C(=O)N[C@@H](C)C(=O)N[C@H](C(=O)N[C@@H](CC(C)C)C(=O)N1CCC[C@H]1C(=O)N[C@@H](CCCNC(=N)N)C(=O)N[C@H](C(=O)N[C@@H](CCC(=O)O)C(=O)N[C@H](C(=O)NCC(=O)N1CCC[C@H]1C(=O)N[C@@H](CCC(=O)O)C(=O)N[C@@H](CO)C(=O)N1CCC[C@H]1C(N)=O)[C@@H](C)O)[C@@H](C)O)[C@@H](C)O
notes: also called Ex. #24
B4: [N-terminal(C18 diacid), 5I, 9I, 10I, 20I]mimylin (peptide)
peptide: {C18 diacid}-EASEISTAIIGRLSAELHEIATLPRTETGPESP-NH2
SMILES: CC[C@H](C)[C@H](NC(=O)[C@H](C)NC(=O)[C@@H](NC(=O)[C@H](CO)NC(=O)[C@@H](NC(=O)[C@H](CCC(=O)O)NC(=O)[C@H](CO)NC(=O)[C@H](C)NC(=O)[C@H](CCC(=O)O)NC(=O)CCCCCCCCCCCCCCCCC(=O)O)[C@@H](C)CC)[C@@H](C)O)C(=O)N[C@H](C(=O)NCC(=O)N[C@@H](CCCNC(=N)N)C(=O)N[C@@H](CC(C)C)C(=O)N[C@@H](CO)C(=O)N[C@@H](C)C(=O)N[C@@H](CCC(=O)O)C(=O)N[C@@H](CC(C)C)C(=O)N[C@@H](Cc1c[nH]cn1)C(=O)N[C@@H](CCC(=O)O)C(=O)N[C@H](C(=O)N[C@@H](C)C(=O)N[C@H](C(=O)N[C@@H](CC(C)C)C(=O)N1CCC[C@H]1C(=O)N[C@@H](CCCNC(=N)N)C(=O)N[C@H](C(=O)N[C@@H](CCC(=O)O)C(=O)N[C@H](C(=O)NCC(=O)N1CCC[C@H]1C(=O)N[C@@H](CCC(=O)O)C(=O)N[C@@H](CO)C(=O)N1CCC[C@H]1C(N)=O)[C@@H](C)O)[C@@H](C)O)[C@@H](C)O)[C@@H](C)CC)[C@@H](C)CC
notes: also called Ex. #77
B5: [N-terminal(C18 diacid), 5I, 9I]mimylin (peptide)
peptide: {C18 diacid}-EASEISTAILGRLSAELHELATLPRTETGPESP-NH2
SMILES: CC[C@H](C)[C@H](NC(=O)[C@H](C)NC(=O)[C@@H](NC(=O)[C@H](CO)NC(=O)[C@@H](NC(=O)[C@H](CCC(=O)O)NC(=O)[C@H](CO)NC(=O)[C@H](C)NC(=O)[C@H](CCC(=O)O)NC(=O)CCCCCCCCCCCCCCCCC(=O)O)[C@@H](C)CC)[C@@H](C)O)C(=O)N[C@@H](CC(C)C)C(=O)NCC(=O)N[C@@H](CCCNC(=N)N)C(=O)N[C@@H](CC(C)C)C(=O)N[C@@H](CO)C(=O)N[C@@H](C)C(=O)N[C@@H](CCC(=O)O)C(=O)N[C@@H](CC(C)C)C(=O)N[C@@H](Cc1c[nH]cn1)C(=O)N[C@@H](CCC(=O)O)C(=O)N[C@@H](CC(C)C)C(=O)N[C@@H](C)C(=O)N[C@H](C(=O)N[C@@H](CC(C)C)C(=O)N1CCC[C@H]1C(=O)N[C@@H](CCCNC(=N)N)C(=O)N[C@H](C(=O)N[C@@H](CCC(=O)O)C(=O)N[C@H](C(=O)NCC(=O)N1CCC[C@H]1C(=O)N[C@@H](CCC(=O)O)C(=O)N[C@@H](CO)C(=O)N1CCC[C@H]1C(N)=O)[C@@H](C)O)[C@@H](C)O)[C@@H](C)O
notes: also called Ex. #25
B6: [N-terminal(C18 diacid), 5H]mimylin (peptide)
peptide: {C18 diacid}-EASEHSTAALGRLSAELHELATLPRTETGPESP-NH2
SMILES: CC(C)C[C@H](NC(=O)[C@H](C)NC(=O)[C@H](C)NC(=O)[C@@H](NC(=O)[C@H](CO)NC(=O)[C@H](Cc1c[nH]cn1)NC(=O)[C@H](CCC(=O)O)NC(=O)[C@H](CO)NC(=O)[C@H](C)NC(=O)[C@H](CCC(=O)O)NC(=O)CCCCCCCCCCCCCCCCC(=O)O)[C@@H](C)O)C(=O)NCC(=O)N[C@@H](CCCNC(=N)N)C(=O)N[C@@H](CC(C)C)C(=O)N[C@@H](CO)C(=O)N[C@@H](C)C(=O)N[C@@H](CCC(=O)O)C(=O)N[C@@H](CC(C)C)C(=O)N[C@@H](Cc1c[nH]cn1)C(=O)N[C@@H](CCC(=O)O)C(=O)N[C@@H](CC(C)C)C(=O)N[C@@H](C)C(=O)N[C@H](C(=O)N[C@@H](CC(C)C)C(=O)N1CCC[C@H]1C(=O)N[C@@H](CCCNC(=N)N)C(=O)N[C@H](C(=O)N[C@@H](CCC(=O)O)C(=O)N[C@H](C(=O)NCC(=O)N1CCC[C@H]1C(=O)N[C@@H](CCC(=O)O)C(=O)N[C@@H](CO)C(=O)N1CCC[C@H]1C(N)=O)[C@@H](C)O)[C@@H](C)O)[C@@H](C)O
notes: also called Ex. #17
B7: [N-terminal(C18 diacid), 4P, 9V]mimylin (peptide)
peptide: {C18 diacid}-EASPLSTAVLGRLSAELHELATLPRTETGPESP-NH2
SMILES: CC(C)C[C@H](NC(=O)[C@H](CCC(=O)O)NC(=O)[C@H](Cc1c[nH]cn1)NC(=O)[C@H](CC(C)C)NC(=O)[C@H](CCC(=O)O)NC(=O)[C@H](C)NC(=O)[C@H](CO)NC(=O)[C@H](CC(C)C)NC(=O)[C@H](CCCNC(=N)N)NC(=O)CNC(=O)[C@H](CC(C)C)NC(=O)[C@@H](NC(=O)[C@H](C)NC(=O)[C@@H](NC(=O)[C@H](CO)NC(=O)[C@H](CC(C)C)NC(=O)[C@@H]1CCCN1C(=O)[C@H](CO)NC(=O)[C@H](C)NC(=O)[C@H](CCC(=O)O)NC(=O)CCCCCCCCCCCCCCCCC(=O)O)[C@@H](C)O)C(C)C)C(=O)N[C@@H](C)C(=O)N[C@H](C(=O)N[C@@H](CC(C)C)C(=O)N1CCC[C@H]1C(=O)N[C@@H](CCCNC(=N)N)C(=O)N[C@H](C(=O)N[C@@H](CCC(=O)O)C(=O)N[C@H](C(=O)NCC(=O)N1CCC[C@H]1C(=O)N[C@@H](CCC(=O)O)C(=O)N[C@@H](CO)C(=O)N1CCC[C@H]1C(N)=O)[C@@H](C)O)[C@@H](C)O)[C@@H](C)O
notes: also called Ex. #30

* marks the point of attachment. C18 diacid = O=C(O)CCCCCCCCCCCCCCCCC(=O)*

The text below walks through data of patent US20160272683A1 (Novo Nordisk, published 2016).

The assay addresses T1, human calcitonin receptor. The assay can be described thus: whole-cell competition vs 125I-human calcitonin (Assay VIIa). The procedure:
The binding assay was performed using a BHK tk'ts 13 cell line was stably transfected with the human calcitonin receptor, and a CRE-responsive luciferase reporter gene.
The day before the assay the cells were Seeded into Poly-D-Lysin coated 384W Opaque White, BD BioCoat plates (10000 cells/well) and Incubated overnight at 37° C., 5% CO2, 95% humidity. […] The morning after, the plates were washed three times in HBSS (4° C.), and lyzed in Lysis buffer (0.1 M NaOH), 1% SDS. Scintillation cocktail (MicroScint40®) was added and the plates were shaken at 500 rpm for a short period. The plate was incubated at room temperature in the dark for 1 hour and Read on a TopCounter™ (Packard). The IC₅₀ was calculated using (one site binding competition analysis) GraphPad Prism5 as a measure of receptor affinity.
Consider B1, for which the half-inhibitory concentration (IC50) came out at 0.309 nM.
Regarding B2, the IC50 is 0.368 nM.
Then B3, with 0.749 nM.
In the case of B4 it was 1.1 nM; in that of B5, 0.413 nM.
Regarding B6, the half-inhibitory concentration (IC50) is 0.577 nM.
As for B7, the IC50 stood at 0.478 nM.

One may read the IC50 as the midpoint of a concentration-inhibition curve.
